In patent US20240279344A1 (CDR LIFE, published 2024):

B1: M1109 (bispecific antibody, V domains shown)
VH: EVQLLESGGGSVQPGGSLRLSCTVSGFSLSNYAMSWVRQAPGKGLEWIGIVSSGGTTYYASWAKGRFTISKDTSKNTVYLQMNSLRAEDTASYYCAKDLYYAPTTYSAFNLWGQGTSVTVSS
VL: SYELTQPPSVSVSPGQTASITCTADTLSRSYASWYQQKPGQSPVLVIYRDTSRPSGIPERFSGSNSGNTATLTISGTQAMDEADYYCATRPSSGSNFQLFGGGTKLTVL
notes: Variant of humanized M0763; tested in SPR as anti-CD3 Fab x anti-MAGE-A4 scFv bispecific
B2: M1110 (bispecific antibody, V domains shown)
VH: EVQLLESGGGSVQPGGSLRLSCTVSGFSLSNYAMSWVRQAPGKGLEWIGIVSSGGTTYYASWAKGRFTISKDTSKNTVYLQMNSLRAEDTASYYCAKDLYYGATTYSAFNLWGQGTSVTVSS
VL: SYELTQPPSVSVSPGQTASITCTADTLSRSYASWYQQKPGQSPVLVIYRDTSRPSGIPERFSGSNSGNTATLTISGTQAMDEADYYCATRPSSGSNFQLFGGGTKLTVL
notes: as for B1
B3: M1111 (bispecific antibody, V domains shown)
VH: EVQLLESGGGSVQPGGSLRLSCTVSGFSLSNYAMSWVRQAPGKGLEWIGIVSSGGTTYYASWAKGRFTISKDTSKNTVYLQMNSLRAEDTASYYCAKDLYYGPATYSAFNLWGQGTSVTVSS
VL: SYELTQPPSVSVSPGQTASITCTADTLSRSYASWYQQKPGQSPVLVIYRDTSRPSGIPERFSGSNSGNTATLTISGTQAMDEADYYCATRPSSGSNFQLFGGGTKLTVL
notes: as for B1
B4: M1112 (bispecific antibody, V domains shown)
VH: EVQLLESGGGSVQPGGSLRLSCTVSGFSLSNYAMSWVRQAPGKGLEWIGIVSSGGTTYYASWAKGRFTISKDTSKNTVYLQMNSLRAEDTASYYCAKDLYYGPTAYSAFNLWGQGTSVTVSS
VL: SYELTQPPSVSVSPGQTASITCTADTLSRSYASWYQQKPGQSPVLVIYRDTSRPSGIPERFSGSNSGNTATLTISGTQAMDEADYYCATRPSSGSNFQLFGGGTKLTVL
notes: as for B1
B5: M1113 (bispecific antibody, V domains shown)
VH: EVQLLESGGGSVQPGGSLRLSCTVSGFSLSNYAMSWVRQAPGKGLEWIGIVSSGGTTYYASWAKGRFTISKDTSKNTVYLQMNSLRAEDTASYYCAKDLYYGPTTASAFNLWGQGTSVTVSS
VL: SYELTQPPSVSVSPGQTASITCTADTLSRSYASWYQQKPGQSPVLVIYRDTSRPSGIPERFSGSNSGNTATLTISGTQAMDEADYYCATRPSSGSNFQLFGGGTKLTVL
notes: as for B1
B6: M1114 (bispecific antibody, V domains shown)
VH: EVQLLESGGGSVQPGGSLRLSCTVSGFSLSNYAMSWVRQAPGKGLEWIGIVSSGGTTYYASWAKGRFTISKDTSKNTVYLQMNSLRAEDTASYYCAKDLYYGPTTYAAFNLWGQGTSVTVSS
VL: SYELTQPPSVSVSPGQTASITCTADTLSRSYASWYQQKPGQSPVLVIYRDTSRPSGIPERFSGSNSGNTATLTISGTQAMDEADYYCATRPSSGSNFQLFGGGTKLTVL
notes: as for B1
B7: M1115 (bispecific antibody, V domains shown)
VH: EVQLLESGGGSVQPGGSLRLSCTVSGFSLSNYAMSWVRQAPGKGLEWIGIVSSGGTTYYASWAKGRFTISKDTSKNTVYLQMNSLRAEDTASYYCAKDLYYGPTTYSSFNLWGQGTSVTVSS
VL: SYELTQPPSVSVSPGQTASITCTADTLSRSYASWYQQKPGQSPVLVIYRDTSRPSGIPERFSGSNSGNTATLTISGTQAMDEADYYCATRPSSGSNFQLFGGGTKLTVL
notes: as for B1
B8: M1117 (bispecific antibody, V domains shown)
VH: EVQLLESGGGSVQPGGSLRLSCTVSGFSLSNYAMSWVRQAPGKGLEWIGIVSSGGTTYYASWAKGRFTISKDTSKNTVYLQMNSLRAEDTASYYCAKDLYYGPTTYSAFALWGQGTSVTVSS
VL: SYELTQPPSVSVSPGQTASITCTADTLSRSYASWYQQKPGQSPVLVIYRDTSRPSGIPERFSGSNSGNTATLTISGTQAMDEADYYCATRPSSGSNFQLFGGGTKLTVL
notes: as for B1
B9: M1119 (bispecific antibody, V domains shown)
VH: EVQLLESGGGSVQPGGSLRLSCTVSGFSLSNYAMSWVRQAPGKGLEWIGIVSSGGTTYYASWAKGRFTISKDTSKNTVYLQMNSLRAEDTASYYCAKDLYYGPTTYSAFNLWGQGTSVTVSS
VL: SYELTQPPSVSVSPGQTASITCTADTLSRSYASWYQQKPGQSPVLVIYRDTSRPSGIPERFSGSNSGNTATLTISGTQAMDEADYYCSTRPSSGSNFQLFGGGTKLTVL
notes: as for B1
B10: M1120 (bispecific antibody, V domains shown)
VH: EVQLLESGGGSVQPGGSLRLSCTVSGFSLSNYAMSWVRQAPGKGLEWIGIVSSGGTTYYASWAKGRFTISKDTSKNTVYLQMNSLRAEDTASYYCAKDLYYGPTTYSAFNLWGQGTSVTVSS
VL: SYELTQPPSVSVSPGQTASITCTADTLSRSYASWYQQKPGQSPVLVIYRDTSRPSGIPERFSGSNSGNTATLTISGTQAMDEADYYCAARPSSGSNFQLFGGGTKLTVL
notes: as for B1
B11: M1121 (bispecific antibody, V domains shown)
VH: EVQLLESGGGSVQPGGSLRLSCTVSGFSLSNYAMSWVRQAPGKGLEWIGIVSSGGTTYYASWAKGRFTISKDTSKNTVYLQMNSLRAEDTASYYCAKDLYYGPTTYSAFNLWGQGTSVTVSS
VL: SYELTQPPSVSVSPGQTASITCTADTLSRSYASWYQQKPGQSPVLVIYRDTSRPSGIPERFSGSNSGNTATLTISGTQAMDEADYYCATAPSSGSNFQLFGGGTKLTVL
notes: as for B1
B12: M1122 (bispecific antibody, V domains shown)
VH: EVQLLESGGGSVQPGGSLRLSCTVSGFSLSNYAMSWVRQAPGKGLEWIGIVSSGGTTYYASWAKGRFTISKDTSKNTVYLQMNSLRAEDTASYYCAKDLYYGPTTYSAFNLWGQGTSVTVSS
VL: SYELTQPPSVSVSPGQTASITCTADTLSRSYASWYQQKPGQSPVLVIYRDTSRPSGIPERFSGSNSGNTATLTISGTQAMDEADYYCATRASSGSNFQLFGGGTKLTVL
notes: as for B1
B13: M1123 (bispecific antibody, V domains shown)
VH: EVQLLESGGGSVQPGGSLRLSCTVSGFSLSNYAMSWVRQAPGKGLEWIGIVSSGGTTYYASWAKGRFTISKDTSKNTVYLQMNSLRAEDTASYYCAKDLYYGPTTYSAFNLWGQGTSVTVSS
VL: SYELTQPPSVSVSPGQTASITCTADTLSRSYASWYQQKPGQSPVLVIYRDTSRPSGIPERFSGSNSGNTATLTISGTQAMDEADYYCATRPSAGSNFQLFGGGTKLTVL
notes: as for B1
B14: M1124 (bispecific antibody, V domains shown)
VH: EVQLLESGGGSVQPGGSLRLSCTVSGFSLSNYAMSWVRQAPGKGLEWIGIVSSGGTTYYASWAKGRFTISKDTSKNTVYLQMNSLRAEDTASYYCAKDLYYGPTTYSAFNLWGQGTSVTVSS
VL: SYELTQPPSVSVSPGQTASITCTADTLSRSYASWYQQKPGQSPVLVIYRDTSRPSGIPERFSGSNSGNTATLTISGTQAMDEADYYCATRPSSASNFQLFGGGTKLTVL
notes: as for B1
B15: M1125 (bispecific antibody, V domains shown)
VH: EVQLLESGGGSVQPGGSLRLSCTVSGFSLSNYAMSWVRQAPGKGLEWIGIVSSGGTTYYASWAKGRFTISKDTSKNTVYLQMNSLRAEDTASYYCAKDLYYGPTTYSAFNLWGQGTSVTVSS
VL: SYELTQPPSVSVSPGQTASITCTADTLSRSYASWYQQKPGQSPVLVIYRDTSRPSGIPERFSGSNSGNTATLTISGTQAMDEADYYCATRPSSGANFQLFGGGTKLTVL
notes: as for B1
B16: M1127 (bispecific antibody, V domains shown)
VH: EVQLLESGGGSVQPGGSLRLSCTVSGFSLSNYAMSWVRQAPGKGLEWIGIVSSGGTTYYASWAKGRFTISKDTSKNTVYLQMNSLRAEDTASYYCAKDLYYGPTTYSAFNLWGQGTSVTVSS
VL: SYELTQPPSVSVSPGQTASITCTADTLSRSYASWYQQKPGQSPVLVIYRDTSRPSGIPERFSGSNSGNTATLTISGTQAMDEADYYCATRPSSGSNAQLFGGGTKLTVL
notes: as for B1
B17: M1128 (bispecific antibody, V domains shown)
VH: EVQLLESGGGSVQPGGSLRLSCTVSGFSLSNYAMSWVRQAPGKGLEWIGIVSSGGTTYYASWAKGRFTISKDTSKNTVYLQMNSLRAEDTASYYCAKDLYYGPTTYSAFNLWGQGTSVTVSS
VL: SYELTQPPSVSVSPGQTASITCTADTLSRSYASWYQQKPGQSPVLVIYRDTSRPSGIPERFSGSNSGNTATLTISGTQAMDEADYYCATRPSSGSNFALFGGGTKLTVL
notes: as for B1
B18: M1129 (bispecific antibody, V domains shown)
VH: EVQLLESGGGSVQPGGSLRLSCTVSGFSLSNYAMSWVRQAPGKGLEWIGIVSSGGTTYYASWAKGRFTISKDTSKNTVYLQMNSLRAEDTASYYCAKDLYYGPTTYSAFNLWGQGTSVTVSS
VL: SYELTQPPSVSVSPGQTASITCTADTLSRSYASWYQQKPGQSPVLVIYRDTSRPSGIPERFSGSNSGNTATLTISGTQAMDEADYYCATRPSSGSNFQAFGGGTKLTVL
notes: as for B1
B19: M1130 (bispecific antibody, V domains shown)
VH: EVQLLESGGGSVQPGGSLRLSCTVSGFSLSNYAMSWVRQAPGKGLEWIGAVSSGGTTYYASWAKGRFTISKDTSKNTVYLQMNSLRAEDTASYYCAKDLYYGPTTYSAFNLWGQGTSVTVSS
VL: SYELTQPPSVSVSPGQTASITCTADTLSRSYASWYQQKPGQSPVLVIYRDTSRPSGIPERFSGSNSGNTATLTISGTQAMDEADYYCATRPSSGSNFQLFGGGTKLTVL
notes: as for B1
B20: M1131 (bispecific antibody, V domains shown)
VH: EVQLLESGGGSVQPGGSLRLSCTVSGFSLSNYAMSWVRQAPGKGLEWIGIASSGGTTYYASWAKGRFTISKDTSKNTVYLQMNSLRAEDTASYYCAKDLYYGPTTYSAFNLWGQGTSVTVSS
VL: SYELTQPPSVSVSPGQTASITCTADTLSRSYASWYQQKPGQSPVLVIYRDTSRPSGIPERFSGSNSGNTATLTISGTQAMDEADYYCATRPSSGSNFQLFGGGTKLTVL
notes: as for B1
B21: M1132 (bispecific antibody, V domains shown)
VH: EVQLLESGGGSVQPGGSLRLSCTVSGFSLSNYAMSWVRQAPGKGLEWIGIVASGGTTYYASWAKGRFTISKDTSKNTVYLQMNSLRAEDTASYYCAKDLYYGPTTYSAFNLWGQGTSVTVSS
VL: SYELTQPPSVSVSPGQTASITCTADTLSRSYASWYQQKPGQSPVLVIYRDTSRPSGIPERFSGSNSGNTATLTISGTQAMDEADYYCATRPSSGSNFQLFGGGTKLTVL
notes: as for B1

biological target: T1, HLA-A2/MAGE-A4 complex, recombinant (HLA-A*02:01 extracellular domain, human b2m, MAGE-A4 peptide 230-239 …) (human, UniProt P04439 25-299 at identity 0.94); P61769 21-119); assay: SPR, monovalent
T1 construct: also called MAGE-A4 pMHC; MAGE-A4/HLA-A2 complex

In order of rising Kd:
1. B18  0.46 nM
2. B7  0.48 nM
3. B3  0.65 nM
4. B14  0.65 nM
5. B12  0.75 nM
6. B13  0.79 nM
7. B15  0.89 nM
8. B16  0.89 nM
9. B9  0.91 nM
10. B6  1.18 nM
11. B10  1.21 nM
12. B17  1.32 nM
13. B19  2.2 nM
14. B20  3.2 nM
15. B21  4.1 nM
16. B8  4.2 nM
17. B11  6.53 nM
18. B2  9.65 nM
19. B1  11.7 nM
20. B5  15.3 nM
21. B4  35.9 nM
